Results on one substance are retold here after doi:10.1101/2020.03.26.009662.

For the assay, the target named is ForT, recombinant wild type. As to the kind of experiment: SEC-MALS.

Consider ForT, recombinant wild type (enzyme), for which the stoichiometry N came to 2.
